This is an account of results in publication PMC3973293, “A tRNA splicing operon: Archease endows RtcB with dual GTP/ATP cofactor specificity and accelerates RNA ligation” (Nucleic Acids Research, 2014).

Substrate in data set [1]: Nc1nc2c(ncn2[C@@H]2O[C@H](COP(=O)(O)OP(=O)(O)OP(=O)(O)O)[C@@H](O)[C@H]2O)c(=O)[nH]1
Put plainly: single-turnover RNA ligation, FAM-RNA gel assay. It counts as biochemical, Pyrococcus horikoshii. Particulars: apparent Km, RtcB 5 uM, MnCl2 0.25 mM, NaCl 300 mM, Bis-Tris pH 7.0, 70 °C, 10-nt RNA substrates 1.0 uM each, varied: cofactor.

Substrate in data set [2]: Nc1nc2c(ncn2[C@H]2C[C@H](O)[C@@H](COP(=O)(O)OP(=O)(O)OP(=O)(O)O)O2)c(=O)[nH]1
Nature of the data set: single-turnover RNA ligation, FAM-RNA gel assay. It counts as biochemical, Pyrococcus horikoshii. To be noted: apparent Km, Archease 100 nM, RtcB 5 uM, MnCl2 0.25 mM, NaCl 300 mM, Bis-Tris pH 7.0, 70 °C, 10-nt RNA substrates 1.0 uM each, varied: cofactor.

Substrate in data set [3]: O=P(O)(O)OP(=O)(O)OP(=O)(O)OC[C@H]1O[C@@H](n2cnc3c(O)ncnc32)[C@H](O)[C@@H]1O
Put plainly: single-turnover RNA ligation, FAM-RNA gel assay. The class given is biochemical, Pyrococcus horikoshii. Particulars: apparent Km, Archease 100 nM, RtcB 5 uM, MnCl2 0.25 mM, NaCl 300 mM, Bis-Tris pH 7.0, 70 °C, 10-nt RNA substrates 1.0 uM each, varied: cofactor.

Substrate in data set [4]: Nc1ncnc2c1ncn2[C@@H]1O[C@H](COP(=O)(O)OP(=O)(O)OP(=O)(O)O)[C@@H](O)[C@H]1O
Nature of the data set: single-turnover RNA ligation, FAM-RNA gel assay. It counts as biochemical, Pyrococcus horikoshii. Particulars: apparent Km, Archease 800 nM, RtcB 5 uM, MnCl2 0.25 mM, NaCl 300 mM, Bis-Tris pH 7.0, 70 °C, 10-nt RNA substrates 1.0 uM each, varied: cofactor.

Substrate in data set [5]: Nc1ncnc2c1ncn2[C@@H]1O[C@H](COP(=O)(O)OP(=O)(O)OP(=O)(O)O)[C@@H](O)[C@H]1O
Nature of the data set: single-turnover RNA ligation, FAM-RNA gel assay. It counts as biochemical, Pyrococcus horikoshii. To be noted: apparent Km, Archease 800 nM, RtcB 5 uM, MnCl2 0.25 mM, NaCl 300 mM, Bis-Tris pH 7.0, 70 °C, 10-nt RNA substrates 1.0 uM each, varied: cofactor. The text has this: single-turnover RNA ligation, FAM-RNA gel assay on RtcB·Archease | the ATP KM* value for K480A RtcB was nearly identical to the ATP KM* value
The source holds these as a separate data set.

Data set [6] has as its target T1, Native Pyrococcus horikoshii RtcB (Pyrococcus horikoshii) (UniProt O59245).
T1 sequence: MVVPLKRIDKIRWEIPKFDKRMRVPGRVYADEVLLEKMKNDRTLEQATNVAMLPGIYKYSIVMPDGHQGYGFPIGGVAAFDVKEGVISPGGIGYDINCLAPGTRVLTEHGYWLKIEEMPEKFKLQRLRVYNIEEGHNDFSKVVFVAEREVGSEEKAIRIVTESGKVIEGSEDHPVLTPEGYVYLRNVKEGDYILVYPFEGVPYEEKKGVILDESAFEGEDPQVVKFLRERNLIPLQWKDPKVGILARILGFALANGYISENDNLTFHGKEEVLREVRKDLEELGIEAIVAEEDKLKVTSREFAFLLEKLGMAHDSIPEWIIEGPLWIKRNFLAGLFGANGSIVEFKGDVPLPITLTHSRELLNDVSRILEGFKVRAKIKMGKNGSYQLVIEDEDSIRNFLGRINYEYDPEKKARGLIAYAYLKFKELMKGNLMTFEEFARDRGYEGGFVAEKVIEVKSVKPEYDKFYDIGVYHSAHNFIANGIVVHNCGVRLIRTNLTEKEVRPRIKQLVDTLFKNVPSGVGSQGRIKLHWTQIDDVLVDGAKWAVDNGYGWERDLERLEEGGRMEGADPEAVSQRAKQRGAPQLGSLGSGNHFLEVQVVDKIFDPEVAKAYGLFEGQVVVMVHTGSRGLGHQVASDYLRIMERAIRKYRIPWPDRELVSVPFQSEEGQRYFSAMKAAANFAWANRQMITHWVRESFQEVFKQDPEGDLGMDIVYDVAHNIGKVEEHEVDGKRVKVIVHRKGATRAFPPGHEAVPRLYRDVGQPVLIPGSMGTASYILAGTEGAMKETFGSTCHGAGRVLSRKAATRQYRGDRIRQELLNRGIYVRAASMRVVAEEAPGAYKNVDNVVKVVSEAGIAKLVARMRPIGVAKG

B1: P. horikoshii RtcB (Pyrococcus horikoshii OT3) (protein)
chain 1: MVVPLKRIDKIRWEIPKFDKRMRVPGRVYADEVLLEKMKNDRTLEQATNVAMLPGIYKYSIVMPDGHQGYGFPIGGVAAFDVKEGVISPGGIGYDIN
chain 2: CGVRLIRTNLTEKEVRPRIKQLVDTLFKNVPSGVGSQGRIKLHWTQIDDVLVDGAKWAVDNGYGWERDLERLEEGGRMEGADPEAVSQRAKQRGAPQLGSLGSGNHFLEVQVVDKIFDPEVAKAYGLFEGQVVVMVHTGSRGLGHQVASDYLRIMERAIRKYRIPWPDRELVSVPFQSEEGQRYFSAMKAAANFAWANRQMITHWVRESFQEVFKQDPEGDLGMDIVYDVAHNIGKVEEHEVDGKRVKVIVHRKGATRAFPPGHEAVPRLYRDVGQPVLIPGSMGTASYILAGTEGAMKETFGSTCHGAGRVLSRKAATRQYRGDRIRQELLNRGIYVRAASMRVVAEEAPGAYKNVDNVVKVVSEAGIAKLVARMRPIGVAKG
notes: intein-free mature ligase
For B1, in data set [1], the Michaelis constant (Km) was 2.4 ± 0.2 µM.

B2: RtcB·Archease (Pyrococcus horikoshii OT3) (protein)
chain 1: MVVPLKRIDKIRWEIPKFDKRMRVPGRVYADEVLLEKMKNDRTLEQATNVAMLPGIYKYSIVMPDGHQGYGFPIGGVAAFDVKEGVISPGGIGYDIN
chain 2: CGVRLIRTNLTEKEVRPRIKQLVDTLFKNVPSGVGSQGRIKLHWTQIDDVLVDGAKWAVDNGYGWERDLERLEEGGRMEGADPEAVSQRAKQRGAPQLGSLGSGNHFLEVQVVDKIFDPEVAKAYGLFEGQVVVMVHTGSRGLGHQVASDYLRIMERAIRKYRIPWPDRELVSVPFQSEEGQRYFSAMKAAANFAWANRQMITHWVRESFQEVFKQDPEGDLGMDIVYDVAHNIGKVEEHEVDGKRVKVIVHRKGATRAFPPGHEAVPRLYRDVGQPVLIPGSMGTASYILAGTEGAMKETFGSTCHGAGRVLSRKAATRQYRGDRIRQELLNRGIYVRAASMRVVAEEAPGAYKNVDNVVKVVSEAGIAKLVARMRPIGVAKG
notes: Archease untagged as described, codon-optimised, Leu inserted after ATG, E. coli BL21, 16 kDa, mostly monomer; with Protein archease
Regarding B2, the Km in data set [2] came to 1.8 ± 0.1 µM; in data set [3], 1.9 ± 0.4 µM; in data set [4], 3.4 ± 1.1 µM; in data set [1] (Archease 100 nM) it was 1.5 ± 0.3 µM.

B3: RtcB·Archease (Pyrococcus horikoshii OT3; K870A) (protein)
chain 1: MVVPLKRIDKIRWEIPKFDKRMRVPGRVYADEVLLEKMKNDRTLEQATNVAMLPGIYKYSIVMPDGHQGYGFPIGGVAAFDVKEGVISPGGIGYDIN
chain 2: CGVRLIRTNLTEKEVRPRIKQLVDTLFKNVPSGVGSQGRIKLHWTQIDDVLVDGAKWAVDNGYGWERDLERLEEGGRMEGADPEAVSQRAKQRGAPQLGSLGSGNHFLEVQVVDKIFDPEVAKAYGLFEGQVVVMVHTGSRGLGHQVASDYLRIMERAIRKYRIPWPDRELVSVPFQSEEGQRYFSAMKAAANFAWANRQMITHWVRESFQEVFKQDPEGDLGMDIVYDVAHNIGKVEEHEVDGKRVKVIVHRKGATRAFPPGHEAVPRLYRDVGQPVLIPGSMGTASYILAGTEGAMKETFGSTCHGAGRVLSRKAATRQYRGDRIRQELLNRGIYVRAASMRVVAEEAPGAYKNVDNVVKVVSEAGIAKLVARMRPIGVAAG
notes: as for B2
With B3, in data set [5], the Michaelis-Menten constant (Km) was 3.0 ± 1.0 µM.

B4: Pyrococcus horikoshii Archease (natural protein)
chain: MLKKWEHYEHTADIGIRGYGDSLEEAFEAVAIALFDVMVNVNKVEKKEVREIEVEAEDLEALLYSFLEELLVIHDIEGLVFRDFEVKIERVNGKYRLRAKAYGEKLDLKKHEPKEEVKAITYHDMKIERLPNGKWMAQLVPDI
B4: the RNA ligation product formed by 5 μM RtcB with Archease titrated in (activation levels off at 100 nM Archease; 92 nM product without Archease), 70°C, 30 min in data set [6] came out at 316 nM.

The Km is the concentration of substrate that gives half-maximal velocity.
